The values that follow come from PMC6005794, “Experimental and bioinformatic approach to identifying antigenic epitopes in human α- and β-enolases” (Biochemistry and Biophysics Reports, 2018).

Series [1] concerns anti-β-enolase antibodies. In words: ELISA test with pin-tethered peptides. It counts as binding, rabbit. The following applies: relative to N^193VIKEKYGKDATN^205-GG-pin. As to the method: The peptides corresponding to predicted epitopes were synthesized using NCP Block of 96 hydroxypropylmethacrylate pins (MIMOTOPES, Clayton, Victoria, Australia) according to earlier described protocol. The synthesis was performed in 96-well plates, following the one-pin – one-peptide approach. Each pin was submerged in 100 μl of the solution containing 60 mM F-moc amino acid and an equimolar amount of diisopropylcarbodiimide and N-hydroxybenzotriazole as coupling reagents. Each coupling cycle lasted 4 h., and to assess the completion of the coupling reaction; pins were tested with 10 mM bromophenol blue for the presence of free amino groups. Peptides were deprotected and pins washed with MeOH, 0.5% acetic acid in MeOH, MeOH, dried, and stored at − 20 °C. […]
The TBST soaked pins were transferred to a 96-well plate filled with 200 μl of 1% BSA in TBST and incubated for 60 min at room temperature. […] The attached antibodies were detected after incubation of the pins with goat-anti-human IgG-alkaline phosphatase (AP) conjugate (ICN Biomedicals, Aurora, Ohio, USA, diluted according to the manufacturer's recommendations). The AP activity was measured to determine the level of the bound conjugate. […] The enzymatic reaction was stopped by removal of pins from the plate, and the amount of released p-nitrophenol was measured at 406 nm in a plate reader (PerkinElmer). […]
In general terms: In an ELISA, binding on a coated surface is turned into a signal by an enzyme label.

The conditions of series [2]: cited from earlier work. An excerpt: The ion-exchange chromatography was used to purify both α- and β-enolases. The method employed in this work takes advantage of different isoelectric point values calculated for human α- and β-enolases (7.38 and 7.72, respectively), muscle-specific enzymes from rat (7.45) and pig (8.8–9.0), [21]. The summary of human enolase isoenzymes purification is presented in Supplementary Table 1. The purity of the enolase preparations was examined at every purification step by SDS-PAGE and is shown on Supplementary Fig. S1.

Series [3] is described as follows: storage stability (enolase activity). The following applies: 7.5 mM imidazole-HCl pH 6.8, 2.5 mM MgSO4, 50 mM NaCl, 50% glycerol, 4 °C. Type of series: physicochemical. On the procedure:
At all stages of the enzyme purification, the magnesium sulfate and temperature set at 4 °C were used to prevent the loss of the enolase activity. Magnesium ions are essential for both catalysis and stability of the enolase dimer, [39]. Purification of β-enolase from human muscle tissue was performed according to the procedure described earlier. Briefly, 110 g of frozen striated muscle was homogenized in deionized water containing 3 mM MgSO4 and protease inhibitors PMSF (phenylmethylsulfonyl fluoride) and aprotinin (2 µg/ml). Homogenization was performed in PT3100D homogenizer (DanLab, Poland) at 4 °C for 10 min. The crude protein extract was incubated at 53–54 °C for 3 min, then cooled to 4 °C and denatured proteins removed by centrifugation at 9000 g for 45 min. The supernatant was fractionated with ammonium sulfate at 4 °C, by adding solid salt in small portions and by stirring gently. The mixture was left overnight at 4 °C after reaching 60% saturation of (NH4)2SO4 and precipitated proteins were centrifuged at 9000 g for 45 min and discarded. Protein precipitation was continued by adding solid (NH4)2SO4 up to 80% saturation, and after overnight storage at 4 C the precipitated proteins were centrifuged. The pellet was dissolved in 20 mM Tris-HCl buffer pH 9.0, containing 3 mM MgSO4 and 1 mM β − mercaptoethanol and dialyzed against this buffer. […]

The mark [4] stands for this setting: muscle-specific enzymes from rat and pig.

Changes are numbered by the printed parent chain. Read-outs that look alike come from different tables or passages of the source.

In the case of “substitution of E^197 in N^193VIKEKYGKDATN^205-GG-pin with alanine: α-enolase epitope 2 peptide with E^197 substituted with alanine”, in series [1], the “loss of immunological activity on substitution” value came out at 70%.
For the molecule “human α-enolase: α-enolase purified from human kidney”, the isoelectric point in series [2] (calculated for human enolases) was 7.38.

B1: human β-enolase: β-enolase purified from human skeletal muscle (protein, UniProt P13929 2-434, looked up)
Beta-enolase: AMQKIFAREILDSRGNPTVEVDLHTAKGRFRAAVPSGASTGIYEALELRDGDKGRYLGKGVLKAVENINNTLGPALLQKKLSVVDQEKVDKFMIELDGTENKSKFGANAILGVSLAVCKAGAAEKGVPLYRHIADLAGNPDLILPVPAFNVINGGSHAGNKLAMQEFMILPVGASSFKEAMRIGAEVYHHLKGVIKAKYGKDATNVGDEGGFAPNILENNEALELLKTAIQAAGYPDKVVIGMDVAASEFYRNGKYDLDFKSPDDPARHITGEKLGELYKSFIKNYPVVSIEDPFDQDDWATWTSFLSGVNIQIVGDDLTVTNPKRIAQAVEKKACNCLLLKVNQIGSVTESIQACKLAQSNGWGVMVSHRSGETEDTFIADLVVGLCTGQIKTGAPCRSERLAKYNQLMRIEEALGDKAIFAGRKFRNPKAK
As for B1, the isoelectric point in series [2] (calculated for human enolases) is reported as 7.72. For the same molecule, the storage stability result in series [3] was “several months without loss of activity”.

B2: muscle-specific enzyme from rat: rat muscle β-enolase (protein, UniProt P15429 2-434, looked up)
Beta-enolase: B1 Beta-enolase with G54S, N67H, N70K, Q78E, I143V, T271S, N311D, I421V
As to B2, in series [2] (setting [4]), the isoelectric point is 7.45.

B3: muscle-specific enzyme from pig: pig muscle β-enolase (protein, UniProt Q1KYT0 2-434, looked up)
Beta-enolase: AMQKIFAREILDSRGNPTVEVDLHTAKGRFRAAVPSGASTGIYEALELRDGDKSRYLGKGVLKAVEHINKTLGPALLEKKLSVVDQEKVDKFMIELDGTENKSKFGANAILGVSLAVCKAGAAEKGVPLYRHIADLAGNPDLVLPVPAFNVINGGSHAGNKLAMQEFMILPVGASSFREAMRIGAEVYHHLKGVIKGKYGKDATNVGDEGGFAPNILENNEALELLKTAIQAAGYPDKVVIGMDVAASEFYRNGKYDLDFKSPDDPSRHITGEKLGELYKSFIKNYPVVSIEDPFDQDDWKTWTSFLSGVNIQIVGDDLTVTNLKRIAQAVEKKACNCLLLKVNQIGSVTESIQACKLAQSNGWGVMVSHRSGETEDTFIADLVVGLCTGQIKTGAPCRSERLAKYNQLMRIEEALGDKAVFAGRKFRNPKAK
As for B3, the isoelectric point in series [2] (setting [4]) is 8.8–9.0.
